Results as given in paper PMC9621051 (mAbs, 2022).

Target: the molecule itself
Test: native MS

B1: phospholipase D3 (PLD3) (enzyme)
chain: MKPKLMYQELKVPVEEPAGELPVNEIEAWKAAEKKARWVLLVLILAVVGFGALMTQLFLWEYGDLHLFGPNQRPAPCYDPCEAVLVESIPEGLEFPNATTSNPSTSQAWLGLLAGAHSSLDIASFYWTLTNNDTHTQEPSAQQGEEILQQLQALAPRGVKVRIAVSKPNGPLADLQSLLQSGAQVRMVDMQKLTHGVLHTKFWVVDQTHFYLGSANMDWRSLTQVKELGVVMYNCSCLARDLTKIFEAYWFLGQAGSSIPSTWPRPFDTRYNQETPMEICLNGTPALAYLASAPPPLCPSGRTPDLKALLSVVDSARSFIYIAVMNYLPTMEFSHPRRFWPAIDDGLRRAAYERGVKVRLLVSCWGHSEPSMRSFLLSLAALRDNHTHSDIQVKLFVVPADEAQARIPYARVNHNKYMVTERAVYIGTSNWSGSYFTETAGTSLLVTQNGHDGLRSQLEDVFLRDWNSLYSHNLDTAADSVGNACRLL
  stoichiometry N: 2
